T1: recombinant non-structural protein 1 of DENV1 (Dengue virus serotype 1, UniProt P17763 776-1127)
T1 construct: domain: NS1; also called rNS DENV1; rNS1 DENV1
T1 sequence: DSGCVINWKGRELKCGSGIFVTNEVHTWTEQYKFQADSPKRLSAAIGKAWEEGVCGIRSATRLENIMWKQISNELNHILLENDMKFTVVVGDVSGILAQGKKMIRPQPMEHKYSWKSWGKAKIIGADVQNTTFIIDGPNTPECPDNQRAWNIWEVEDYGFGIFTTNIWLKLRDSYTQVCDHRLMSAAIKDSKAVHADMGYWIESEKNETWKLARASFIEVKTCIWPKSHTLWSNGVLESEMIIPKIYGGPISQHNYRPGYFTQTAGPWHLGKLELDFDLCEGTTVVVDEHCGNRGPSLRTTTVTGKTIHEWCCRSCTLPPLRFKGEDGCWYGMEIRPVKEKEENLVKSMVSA

T2: recombinant non-structural protein 1 of West Nile Virus (West Nile Virus, UniProt P06935 788-1139)
T2 construct: domain: NS1; also called rNS1 WNV
T2 sequence: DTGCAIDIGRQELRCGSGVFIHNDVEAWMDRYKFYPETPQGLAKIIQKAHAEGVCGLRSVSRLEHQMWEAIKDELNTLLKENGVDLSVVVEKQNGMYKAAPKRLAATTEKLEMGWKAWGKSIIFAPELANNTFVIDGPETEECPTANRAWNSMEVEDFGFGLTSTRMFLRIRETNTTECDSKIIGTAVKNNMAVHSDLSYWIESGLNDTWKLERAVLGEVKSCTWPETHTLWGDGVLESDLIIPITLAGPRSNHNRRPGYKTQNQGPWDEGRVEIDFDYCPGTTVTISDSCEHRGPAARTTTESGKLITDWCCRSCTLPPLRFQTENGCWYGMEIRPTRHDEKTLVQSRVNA

T3: recombinant non-structural protein 1 of DENV3 (Dengue virus serotype 3, UniProt Q6YMS4 774-1125)
T3 construct: domain: NS1; also called rNS1 DENV3
T3 sequence: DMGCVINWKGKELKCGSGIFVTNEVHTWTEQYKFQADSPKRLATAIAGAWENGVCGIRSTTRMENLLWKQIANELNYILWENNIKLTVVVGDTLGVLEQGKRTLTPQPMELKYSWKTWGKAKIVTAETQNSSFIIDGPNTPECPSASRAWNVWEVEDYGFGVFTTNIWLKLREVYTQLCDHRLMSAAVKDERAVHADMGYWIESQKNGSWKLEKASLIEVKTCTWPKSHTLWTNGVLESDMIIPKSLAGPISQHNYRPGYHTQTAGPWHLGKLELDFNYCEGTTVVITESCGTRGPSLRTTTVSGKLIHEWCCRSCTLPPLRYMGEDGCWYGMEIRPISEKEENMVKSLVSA

T4: recombinant non-structural protein 1 of DENV2 (Dengue virus serotype 2, UniProt P29990 776-1127)
T4 construct: domain: NS1; also called rNS1 DENV2
T4 sequence: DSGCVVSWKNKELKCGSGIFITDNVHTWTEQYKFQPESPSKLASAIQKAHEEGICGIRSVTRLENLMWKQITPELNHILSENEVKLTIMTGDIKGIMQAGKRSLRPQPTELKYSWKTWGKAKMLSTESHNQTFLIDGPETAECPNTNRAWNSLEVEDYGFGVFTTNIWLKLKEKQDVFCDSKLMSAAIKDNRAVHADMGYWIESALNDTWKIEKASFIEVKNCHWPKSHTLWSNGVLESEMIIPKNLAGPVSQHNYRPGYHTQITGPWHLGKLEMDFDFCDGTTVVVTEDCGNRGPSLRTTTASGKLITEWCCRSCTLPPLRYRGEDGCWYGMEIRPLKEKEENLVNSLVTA

T5: native NS1 on the surface of DENV1-infected Vero cells (Dengue virus serotype 1, UniProt P17763 776-1127)
T5 construct: domain: NS1; also called DENV1 (Cell-Based ELISA)
T5 sequence: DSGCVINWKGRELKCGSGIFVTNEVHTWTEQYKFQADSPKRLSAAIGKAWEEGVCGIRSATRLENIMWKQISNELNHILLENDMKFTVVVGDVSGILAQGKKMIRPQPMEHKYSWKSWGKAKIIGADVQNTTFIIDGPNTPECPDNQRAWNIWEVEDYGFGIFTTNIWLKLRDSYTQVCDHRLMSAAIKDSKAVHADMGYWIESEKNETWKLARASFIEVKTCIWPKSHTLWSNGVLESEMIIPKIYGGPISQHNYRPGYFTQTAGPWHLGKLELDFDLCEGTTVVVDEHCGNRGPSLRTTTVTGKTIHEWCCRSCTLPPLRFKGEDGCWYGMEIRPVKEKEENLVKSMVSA

T6: native NS1 on the surface of DENV3-infected Vero cells (Dengue virus serotype 3, UniProt Q6YMS4 774-1125)
T6 construct: domain: NS1; also called DENV3 (Cell-Based ELISA)
T6 sequence: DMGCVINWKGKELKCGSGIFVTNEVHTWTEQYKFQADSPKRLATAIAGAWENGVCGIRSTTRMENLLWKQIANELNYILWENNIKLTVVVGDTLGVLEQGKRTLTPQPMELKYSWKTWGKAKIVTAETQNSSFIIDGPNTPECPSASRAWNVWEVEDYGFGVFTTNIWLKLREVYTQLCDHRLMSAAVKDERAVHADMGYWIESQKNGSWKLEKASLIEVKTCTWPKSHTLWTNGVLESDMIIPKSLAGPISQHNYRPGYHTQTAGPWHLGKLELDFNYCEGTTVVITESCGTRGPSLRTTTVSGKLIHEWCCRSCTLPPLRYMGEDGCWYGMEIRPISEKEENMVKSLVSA

T7: native NS1 on the surface of DENV2-infected Vero cells (Dengue virus serotype 2, UniProt P29990 776-1127)
T7 construct: domain: NS1; also called DENV2 (Cell-Based ELISA)
T7 sequence: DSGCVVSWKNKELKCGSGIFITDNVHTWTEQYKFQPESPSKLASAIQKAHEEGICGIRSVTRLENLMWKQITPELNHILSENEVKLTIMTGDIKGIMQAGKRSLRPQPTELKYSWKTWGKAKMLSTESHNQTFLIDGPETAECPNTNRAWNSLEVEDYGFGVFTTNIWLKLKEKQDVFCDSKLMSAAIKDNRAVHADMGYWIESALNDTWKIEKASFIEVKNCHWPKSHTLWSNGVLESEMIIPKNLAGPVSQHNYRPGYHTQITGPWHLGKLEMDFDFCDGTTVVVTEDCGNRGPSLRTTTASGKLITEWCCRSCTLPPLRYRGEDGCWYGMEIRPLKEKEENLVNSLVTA

T8: native NS1 in culture supernatant of DENV1-infected Vero cells (Dengue virus serotype 1, UniProt P17763 776-1127)
T8 construct: domain: NS1
T8 sequence: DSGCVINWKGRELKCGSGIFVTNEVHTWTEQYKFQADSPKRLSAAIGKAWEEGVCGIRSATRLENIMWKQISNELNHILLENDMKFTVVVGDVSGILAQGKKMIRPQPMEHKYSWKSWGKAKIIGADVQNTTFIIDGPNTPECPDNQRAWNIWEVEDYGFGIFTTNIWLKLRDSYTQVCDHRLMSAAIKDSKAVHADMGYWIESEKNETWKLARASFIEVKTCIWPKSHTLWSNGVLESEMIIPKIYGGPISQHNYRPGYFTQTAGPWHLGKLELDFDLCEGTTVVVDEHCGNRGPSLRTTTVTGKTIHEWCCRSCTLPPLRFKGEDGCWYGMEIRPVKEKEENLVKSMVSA

T9: native NS1 in culture supernatant of DENV2-infected Vero cells (Dengue virus serotype 2, UniProt P29990 776-1127)
T9 construct: domain: NS1
T9 sequence: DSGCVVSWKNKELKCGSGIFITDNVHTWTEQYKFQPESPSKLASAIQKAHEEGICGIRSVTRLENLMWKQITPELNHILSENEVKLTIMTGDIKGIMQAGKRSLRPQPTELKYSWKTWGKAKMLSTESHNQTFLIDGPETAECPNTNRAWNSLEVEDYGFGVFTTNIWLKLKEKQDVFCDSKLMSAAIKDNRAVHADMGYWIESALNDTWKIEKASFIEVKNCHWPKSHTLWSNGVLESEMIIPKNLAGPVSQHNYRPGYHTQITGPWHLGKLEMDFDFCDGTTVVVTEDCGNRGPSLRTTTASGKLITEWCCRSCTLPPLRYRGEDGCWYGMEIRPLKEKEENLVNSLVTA

T10: native NS1 in culture supernatant of DENV3-infected Vero cells (Dengue virus serotype 3, UniProt Q6YMS4 774-1125)
T10 construct: domain: NS1
T10 sequence: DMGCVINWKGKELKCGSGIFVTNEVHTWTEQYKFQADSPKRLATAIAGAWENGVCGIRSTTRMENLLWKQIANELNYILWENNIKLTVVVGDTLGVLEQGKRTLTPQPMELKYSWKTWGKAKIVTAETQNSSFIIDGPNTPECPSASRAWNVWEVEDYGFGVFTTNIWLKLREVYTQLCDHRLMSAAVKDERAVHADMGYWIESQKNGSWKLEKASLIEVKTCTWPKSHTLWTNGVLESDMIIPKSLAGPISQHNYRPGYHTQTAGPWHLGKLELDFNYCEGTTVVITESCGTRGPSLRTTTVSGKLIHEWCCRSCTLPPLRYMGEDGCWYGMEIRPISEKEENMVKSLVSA


Key:
[1] = molecular target: T1, recombinant non-structural protein 1 of …; assay: iELISA, FIG. 4 legend
[2] = molecular target: T2, recombinant non-structural protein 1 of …; assay: iELISA, FIG. 4 legend
[3] = molecular target: T11, recombinant SUMO protein (small-ubiquitin-like modifier); assay: iELISA, FIG. 4 legend
T11 construct: also called SUMO* tag

[4] = molecular target: T12, recombinant non-structural protein 1 of Yellow Fever Virus (Yellow Fever Virus, UniProt P03314 779-1130); assay: iELISA, FIG. 4 legend
T12 construct: domain: NS1; also called rNS1 YFV

[5] = molecular target: T3, recombinant non-structural protein 1 of …; assay: iELISA, FIG. 4 legend
[6] = molecular target: T4, recombinant non-structural protein 1 of …; assay: iELISA, FIG. 4 legend
[7] = molecular target: T1, recombinant non-structural protein 1 of …; assay: iELISA on recombinant protein
[8] = molecular target: T2, recombinant non-structural protein 1 of …; assay: iELISA on recombinant protein
[9] = molecular target: T12, recombinant non-structural protein 1 of …; assay: iELISA on recombinant protein
[10] = molecular target: T3, recombinant non-structural protein 1 of …; assay: iELISA on recombinant protein
[11] = molecular target: T4, recombinant non-structural protein 1 of …; assay: iELISA on recombinant protein
[12] = molecular target: T5, native NS1 on the surface of …; assay: cell-based ELISA on infected Vero cells
[13] = molecular target: T6, native NS1 on the surface of …; assay: cell-based ELISA on infected Vero cells
[14] = molecular target: T7, native NS1 on the surface of …; assay: cell-based ELISA on infected Vero cells
[15] = molecular target: T8, native NS1 in culture supernatant of …; assay: iELISA on Vero cell culture supernatant
[16] = molecular target: T9, native NS1 in culture supernatant of …; assay: iELISA on Vero cell culture supernatant
[17] = molecular target: T10, native NS1 in culture supernatant of …; assay: iELISA on Vero cell culture supernatant

Binder | OD value (450 nm) [1] [OD] | OD value (450 nm) [2] [OD] | OD value (450 nm) [3] [OD] | OD value (450 nm) [4] [OD] | OD value (450 nm) [5] [OD] | OD value (450 nm) [6] [OD] | binding result [7] | binding result [8] | binding result [9] | binding result [10] | binding result [11] | binding result [12] | binding result [13] | binding result [14] | binding result [15] | binding result [16] | binding result [17]
MAb 6D4B10 (antibody, V domains shown) VH: EVQLQQSGPELVKPGASVKMSCKASGYTFTSYVMHWVKQKPGQGLEWIGYLNPYNDDTKYNEKFKGKATLTSDKSSSTAYMELSSLTSEDSAVYYCAYGPPYALDYWGQGTSVTVSS VL: QIVLTQSPAIMTASLGERVTMTCTASSSVSSSYLHWYQQKPGSSPKLWIYSTSNLASGVPARFSGSGSGTSYSLTISSMEAEDAATYYCHQYHRSPYTFGGGTKLEIK | < 0 | < 0 | < 0 | < 0 | < 0 | < 0 | no binding | no binding | no binding | no binding | no binding | no binding | no binding | no binding | no binding | no binding | no binding
MAb 8A6F2 (antibody, V domains shown) VH: DVQLQESGPDLVKPSQSLSLTCTVTGYSITSGYNWHWIRQFPGNKLEWMGYIHYSGGTNYNPSLKSRISITRDTSKNQFFLQLNSVTTEDTATYYCARRTGTVPFAYWGQGTLVTVSA VL: EIVLTQSPALMAASPGEKVTITCSVSSSISSSNLHWYQQKSETSPKPWIYGTSNLASGVPVRFSGSGSGTSYSLTISSMEAEDAATYYCQQWSSYPLTFGGGTKLEIK | < 0 | < 0 | < 0 | < 0 | < 0 | < 0 | no binding | no binding | no binding | no binding | no binding | no binding | no binding | no binding | no binding | no binding | no binding
MAb 3H7A9 (antibody, V domains shown) VH: EVQLQQSGAELVKPGASVKLSCTASGFNIKDTYMHWVKQRPEQGLEWIGRIDPANGNTQYGPKFQGKATITADTSSNTAYLQLSSLTSEDTAVYYCARGGIFYYYGSSYSYAMDYWGQGTSVTVSS VL: DIQMTQTTSSLSASLGDRVTISCRASQDISNYLNWYQQKPDGTVTLLIYYTSRLHSGVPSRFSGSGSGTDYSLTISNLEQEDIATYFCQQGNTLPRTFGGGTKLEIK | < 0 | < 0 | < 0 | < 0 | < 0 | < 0 | no binding | no binding | no binding | no binding | no binding | no binding | no binding | no binding | no binding | no binding | no binding
